Values quoted from earlier work in paper PMC9313270.

Molecular target: leptin (UniProt P41159)
Assay: not stated (listed for the qPCR aptasensor, 'This work')
Conditions: leptin binding buffer (composition not given); aptamer-adaptor annealing 15 min at 37 C, leptin incubation 30 min at 37 C, polymerase extension 10 min at 60 C …

Chain of leptin (P41159 22-167): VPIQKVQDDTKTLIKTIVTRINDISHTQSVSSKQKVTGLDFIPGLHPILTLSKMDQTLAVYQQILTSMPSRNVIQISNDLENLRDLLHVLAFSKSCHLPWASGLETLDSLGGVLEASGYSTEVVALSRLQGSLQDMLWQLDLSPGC

GTTAATGGGGGATCTCGCGGCCGTTCTTGTTGCTTATACA [leptin aptamer (Ashley and Li)]
Kd: 1500 nM
